B1: Bc1.263 (antibody, human IgG1, kappa, V domains shown)
VH: QVQLVQSGAEVKKPGSSVKVSCRASGGTFSNYGVNWVRQAPGQGLEWMGKIIPILGIVNYAQKFQGRVTITADKSTSTAYMELSSLRSEDTAVYYCARDRGGKPLYSYGYGLDYWGQGTLVTVSS
VL: EIVLTQSPATLSLSPGERATLSCRASLSVSTYLAWYQKKPGQPPRLLIYDASKRATGIPARFSGSGSGTDFTLTISSLEPEDFAVYYCQQRSTTFGQGTKVEIKR
B2: Bv4.105 (antibody, V domains shown)
VH: QVQLVESGGGLVQSGRSLRLSCSAFGFTFGDYPIMWVRLAPGKGLEWVGFIRSKAYGGTAEYAASVKGRFTTSRDDSRSTAYLQMNSLKTEDTAVYYCTREGGHSGFWSGFNKIPTFDYWGQGSLVTVSS
VL: DIQMTQSPSSLSASIGDRVSITCRASETIRTYLNWYQHKPGKAPQLLIYAASSVQSGVPSRFSGSGSGTDFTLTISNLQPEDFATYYCQQSYTSPWVTFGPGTKVDIKR

Legend:
[1] = biological target: HBV genotype D viruses (produced in HepG2.2.15 cell culture supernatant) (hepatitis B virus genotype D); experiment: cell-based or functional assay
[2] = biological target: T1, consensus S-HBs protein of HBV genotype H (ConsHBAg_H) (hepatitis B virus genotype H (consensus), UniProt Q8JMZ6 175-400); experiment: flow cytometry, S-HBs-transfected 293-F cells
T1 construct: also called genotype H S-HBs

[3] = biological target: T2, consensus S-HBs protein of HBV genotype F (ConsHBAg_F) (hepatitis B virus genotype F (consensus), UniProt Q05496 175-400); experiment: flow cytometry, S-HBs-transfected 293-F cells
T2 construct: also called genotype F S-HBs

[4] = biological target: T3, consensus S-HBs protein of HBV genotype C (ConsHBAg_C) (hepatitis B virus genotype C (consensus), UniProt P03140 175-400); experiment: flow cytometry, S-HBs-transfected 293-F cells
T3 construct: also called genotype C S-HBs

[5] = biological target: T4, consensus S-HBs protein of HBV genotype A (ConsHBAg_A) (hepatitis B virus genotype A (consensus), UniProt P03141 175-400); experiment: flow cytometry, S-HBs-transfected 293-F cells
T4 construct: also called genotype A S-HBs

[6] = biological target: T5, Ayw S-HBs protein (ayw HBsAg particles, Engerix-B (Ayw)) (hepatitis B virus, ayw subtype); experiment: ELISA on recombinant HBV vaccine particles
[7] = biological target: T6, Adw S-HBs protein (adw HBsAg particles, GenHevac (Adw)) (hepatitis B virus, adw subtype); experiment: ELISA on recombinant HBV vaccine particles
T6 construct: also called GenHevac-B

[8] = biological target: T5, Ayw S-HBs protein (ayw HBsAg particles, …); experiment: ELISA, AUC of binding curve; set-up: unit not given beside the values
[9] = biological target: T6, Adw S-HBs protein (adw HBsAg particles, …); experiment: ELISA, AUC of binding curve; set-up: unit not given beside the values

T2 sequence (Q05496 175-400, tags left off): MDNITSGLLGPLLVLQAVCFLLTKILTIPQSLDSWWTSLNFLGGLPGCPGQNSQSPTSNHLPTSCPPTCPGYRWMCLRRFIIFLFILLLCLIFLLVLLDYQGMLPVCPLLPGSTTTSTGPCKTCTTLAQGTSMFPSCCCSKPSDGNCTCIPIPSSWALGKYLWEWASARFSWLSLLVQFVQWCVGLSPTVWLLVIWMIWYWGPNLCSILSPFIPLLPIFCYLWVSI
T1 sequence (Q8JMZ6 175-400, tags left off): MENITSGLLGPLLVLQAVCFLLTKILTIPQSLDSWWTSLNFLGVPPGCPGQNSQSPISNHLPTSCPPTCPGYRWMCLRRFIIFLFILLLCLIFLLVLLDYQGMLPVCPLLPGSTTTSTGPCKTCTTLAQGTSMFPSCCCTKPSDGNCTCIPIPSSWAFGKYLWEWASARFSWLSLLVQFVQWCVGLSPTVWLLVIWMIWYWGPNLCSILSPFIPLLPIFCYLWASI

Binder | HBV-gD in vitro neutralization (IC50 µg/ml) [1] [µg/mL] | % of bound S-HBs-expressing cells [2] [%] | % of bound S-HBs-expressing cells [3] [%] | % of bound S-HBs-expressing cells [4] [%] | % of bound S-HBs-expressing cells [5] [%] | EC50 [6] [ng/mL] | EC50 [7] [ng/mL] | AUC (serotype binding) [8] | AUC (serotype binding) [9]
B1 | 3.96e-06 |  |  |  |  |  |  |  | 
B2 | 2.95e-06 | 55 | 46 | 1 | 21 | 4.8 | 8920 | 33 | 8
